Reference: paper PMC2222952, “Structural and Biochemical Bases for the Inhibition of Autophagy and Apoptosis by Viral BCL-2 of Murine γ-Herpesvirus 68” (PLoS Pathogens, 2008)
Read-outs that look alike come from different tables or passages of the source. Ends that are not written are not given here.

B1: BAX BH3 peptide, 26-mer (residues 52–77 of BAX) (peptide, UniProt Q07813-1 52-77, looked up)
peptide: QDASTKKLSECLRRIGDELDSNMELQ
notes: also called BAX peptide; source: synthetic peptide, bought: Peptron (Korea)
B2: BAK BH3 peptide, 26-mer (residues 65–90 of BAK) (peptide, UniProt O08734 65-90, looked up)
peptide: PNSILGQVGRQLALIGDDINRRYDTE
notes: also called BAK peptide; 26-mer BAK peptide; source: synthetic peptide, bought: Peptron (Korea)
B3: BIM BH3 peptide, 26-mer (residues 139–164 of BIM) (peptide, UniProt O54918-1 139-164, looked up)
peptide: DLRPEIRIAQELRRIGDEFNETYTRR
notes: also called BIM peptide; source: synthetic peptide, bought: Peptron (Korea)
B4: Noxa BH3 peptide, 26-mer (residues 16–41 of Noxa) (peptide, UniProt Q9JM54 16-41, looked up)
peptide: RAELPPEFAAQLRKIGDKVYCTWSAP
notes: also called Noxa peptide; source: synthetic peptide, bought: Peptron (Korea)
B5: BID BH3 peptide, 25-mer (residues 80–104 of BID) (peptide, UniProt P70444 80-104, looked up)
peptide: EEIIHNIARHLAQIGDEMDHNIQPT
notes: also called BID peptide; source: synthetic peptide, bought: Peptron (Korea)
B6: M11 (residues 1–137), purified alone (domain or fragment)
chain: MSHKKSGTYWATLITAFLKTVSKVEELDCVDSAVLVDVSKIITLTQEFRRHYDSVYRADYGPALKNWKRDLSKLFTSLFVDVINSGRIVGFFDVGRYVCEEVLCPGSWTEDHELLNDCMTHFFIENNLMNHFPLEDI
notes: source: E. coli BL21(DE3), purified (Ni-NTA, Hitrap Q)
B7: PUMA BH3 peptide, 26-mer (residues 130–155 of PUMA) (peptide, UniProt Q99ML1 130-155, looked up)
peptide: EEEWAREIGAQLRRMADDLNAQYERR
notes: also called PUMA peptide; source: synthetic peptide, bought: Peptron (Korea)
B8: BAD BH3 peptide, 27-mer (residues 137–163 of BAD) (peptide, UniProt Q61337 137-163, looked up)
peptide: APPNLWAAQRYGRELRRMSDEFEGSFK
notes: also called BAD peptide; source: synthetic peptide, bought: Peptron (Korea)
B9: human BCL-2 (residues 1–50 and 92–207, residues 35–50 replaced with residues 33–48 of BCL-XL) (domain or fragment, UniProt P10415-1 1-34, looked up)
chain: MAHAGRTGYDNREIVMKYIHYKLSQRGYEWDAGDNRTEAPEGTESEMETPVVHLTLRQAGDDFSRRYRRDFAEMSSQLHLTPFTARGRFATVVEELFRDGVNWGRIVAFFEFGGVMCVESVNREMSPLVDNIALWMTEYLNRHLHTWIQDNGGWDAFVELYGPSMR
notes: also called cellular BCL-2; source: E. coli BL21(DE3), purified (Ni-NTA, Hitrap Q)
B10: Beclin1(101–267): mouse Beclin1 fragment containing residues 101–267, expressed as a soluble form in E. coli (protein)
chain: ASDGGTMENLSRRLKVTGDLFDIMSGQTDVDHPLCEECTDTLLDQLDTQLNVTENECQNYKRCLEILEQMNEDDSEQLQRELKELALEEERLIQELEDVEKNRKVVAENLEKVQAEAERLDQEEAQYQREYSEFKRQQLELDDELKSVENQVRYAQIQLDKLKKTNV

Assays:
[1] = molecular target: T1, M11, viral BCL-2 of murine γ-herpesvirus 68 (residues 1–137) (Murid herpesvirus 4, UniProt P89884); format: binding
T1 construct: Each of the DNA fragments coding for M11 (residues 1–137); His6 tag; This is inferred: pPROEX HTa encodes an N-terminal His tag with a TEV site, and purification was on Ni-NTA; (N); made in house; host or cells: E. coli BL21(DE3)
T1 sequence (P89884 whole entry, looked up): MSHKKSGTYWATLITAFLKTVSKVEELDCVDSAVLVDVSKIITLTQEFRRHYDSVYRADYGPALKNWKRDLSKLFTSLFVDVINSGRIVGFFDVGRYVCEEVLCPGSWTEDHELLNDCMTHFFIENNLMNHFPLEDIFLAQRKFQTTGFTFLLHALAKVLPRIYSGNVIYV
Text: (§1) “HT”, “CCD” and “ECD” denote hydrophobic tail, coiled-coil domain and evolutionarily conserved domain, respectively. […] The surface coloring scheme is as follows: olive for Val, Leu, Ile, Phe, Trp, Met, and Ala; yellow for Cys, Gly, Tyr, and Pro; gray for other amino acids. […] Only the BH3-binding groove region of M11 is shown for clarity. […] The arrows indicate the movements of the Cα atoms of Asp59 and Tyr60 in M11. (C) ITC analysis.
(§2) Figure 5 Analyses of the Interactions between M11 or BCL-2 Proteins and BAX/BAK (A) Cell-based binding assay. 293T cells were transfected with HA-tagged BAK or Flag-tagged BAX together with the indicated GST-tagged prosurvival BCL-2 proteins. Whole cell lysates were used for immunoprecipitation with anti-GST followed by immunoblotting with anti-HA or anti-Flag. […] (B) ITC analyses of the interactions of M11 with the BH3 peptides of BAX or BAK. The ITC analysis was carried out by titrating 0.1 mM of the indicated peptides into 5 μM of M11. The ITC run for the titration of the 26-mer BAK peptide is shown. […] NIH3T3 cells were transfected with HA-tagged M11 and whole cell lysates were used for immunoprecipitation with control rabbit serum or anti-BAK followed by immunoblotting with anti-HA.
(§3) A plasmid containing the DNA segment coding for human BCL-2 (residues 1–50 and 92–207) was also constructed. The resulting protein lacks the internal long loop (residues 51–91) and contains a replacement of residues 35–50 with residues 33–48 of BCL-XL, which was necessary for the solubility of the protein as reported earlier. Each construct was introduced into the E. coli BL21(DE3) strain. The proteins were expressed at 21 °C overnight and purified using a Ni-NTA column and a Hitrap Q anion exchange column.
(§4) All measurements were carried out at 25 °C on a MicroCalorimetry System (MicroCal). Protein samples were dialyzed against the solution containing 20 mM Tris-HCl (pH 7.4) and 100 mM NaCl. The samples were degassed for 20 min and centrifuged to remove any residuals prior to the measurements. Dilution enthalpies were measured in separate experiments (titrant into buffer) and subtracted from the enthalpies of the binding between the protein and the titrant. Data were analyzed using the Origin software (OriginLab Corp.).

BCL-XL ∆C24 = conditions: Table S1; relative values, not absolute KD; peptides of Chen et al. are the same as or 1 to 2 residues shorter than those of this paper; read-out: binding affinity for BCL-XL ∆C24 (relative value, competitive binding assay); cited from earlier work
BCL-w ∆C29 = conditions: Table S1; relative values, not absolute KD; peptides of Chen et al. are the same as or 1 to 2 residues shorter than those of this paper; read-out: binding affinity for BCL-w ∆C29 (relative value, competitive binding assay); cited from earlier work
A1 ∆C20 = test system: A1 ∆C20; parameters: method as in earlier work; conditions: Table S1; relative values, not absolute KD; peptides of Chen et al. are the same as or 1 to 2 residues shorter than those of this paper; read-out: binding affinity for A1 ∆C20 (relative value, competitive binding assay); cited from earlier work
MCL ∆N151 ∆C23 = test system: MCL ∆N151 ∆C23; parameters: method as in earlier work; conditions: Table S1; relative values, not absolute KD; peptides of Chen et al. are the same as or 1 to 2 residues shorter than those of this paper; read-out: binding affinity for MCL ∆N151 ∆C23 (relative value, competitive binding assay); cited from earlier work
BCL-2 ∆C22 = test system: BCL-2 ∆C22; parameters: method as in earlier work; conditions: Table S1; relative values, not absolute KD; peptides of Chen et al. are the same as or 1 to 2 residues shorter than those of this paper; read-out: binding affinity for BCL-2 ∆C22 (relative value, competitive binding assay); cited from earlier work
[2] = molecular target: T2, M11, viral BCL-2 of murine γ-herpesvirus 68 (residues 1–137) (Murid herpesvirus 4, UniProt P89884); format: binding; conditions: ITC, 25 °C, 20 mM Tris-HCl (pH 7.4), 100 mM NaCl; Table S2
T2 construct: Each of the DNA fragments coding for M11 (residues 1–137); His6 tag; This is inferred: pPROEX HTa encodes an N-terminal His tag with a TEV site, and purification was on Ni-NTA; (N); made in house; host or cells: E. coli BL21(DE3)
Text: as §1, §2, §3, §4

[3] = molecular target: B6; assay: ITC; conditions: both partners purified
[4] = molecular target: T3, mouse BCL-XL (residues 1–44 and 85–196) (mouse, UniProt Q64373-1 1-196, lacking the internal long loop (residues 45–84)); assay: native gel or EMSA; conditions: both partners purified
T3 construct: also called BCL-XL lacking the internal long loop and the C-terminal tail region

Beclin1(101–267) = molecular target: T4, Beclin1(101–267) (mouse, UniProt O88597 101-267); assay: ITC; conditions: both partners purified
T4 construct: also called Beclin1 fragment containing residues 101–267; large Beclin1 fragment; source: E. coli BL21(DE3), purified (Ni-NTA, Hitrap Q)

[5] = molecular target: human BCL-2 (residues 1–50 and 92–207); assay: Isothermal titration calorimetry (ITC) of BCL-2 with Beclin1 fragment; format: binding
Procedure: Figure 3 M11 Interacts Much More Tightly with Beclin1 than BCL-2 and BCL-XL (A) ITC analysis. The measurement was carried out by titrating 0.1 mM of M11 or BCL-2 into 5 μM of the indicated Beclin1 fragment. The K D values were deduced from curve fittings of the integrated heat per mol of added ligand. (B) M11–Beclin1 interface is tighter than that of BCL-XL–Beclin1. The structures of M11–Beclin1 fragment (left) and BCL-XL–Beclin1 peptide (right) are compared side by side. In both the structures, the five consensus BH3 residues of the bound α-helices and the side chains of M11 or BCL-XL interacting with those residues are shown as sticks and labeled. Noted are the tighter interactions of the N-terminal region of Beclin1 with the α3 helix of M11 than the corresponding region in the BCL-XL–Beclin1 helix (indicated by dotted circles).
Each of the DNA fragments coding for M11 (residues 1–137), mouse BCL-XL (residues 1–44 and 85–196) or mouse Beclin1 (residues 101–267) was cloned into pPROEX HTa. […]
All measurements were carried out at 25 °C on a MicroCalorimetry System (MicroCal). […] Dilution enthalpies were measured in separate experiments (titrant into buffer) and subtracted from the enthalpies of the binding between the protein and the titrant. Data were analyzed using the Origin software (OriginLab Corp.).

[6] = 25 °C, 20 mM Tris-HCl (pH 7.4), 100 mM NaCl
[7] = ITC, 25 °C, 20 mM Tris-HCl (pH 7.4), 100 mM NaCl, Table S2

T3 sequence (Q64373 other isoform, or with tags, fused parts or gaps with the stated changes): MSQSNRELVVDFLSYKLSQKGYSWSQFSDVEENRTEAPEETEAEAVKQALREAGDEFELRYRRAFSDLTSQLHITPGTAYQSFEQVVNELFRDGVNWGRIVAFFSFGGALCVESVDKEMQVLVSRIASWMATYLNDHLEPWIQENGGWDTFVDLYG

In the case of “BAK (16-mer; residues 69-84): synthetic 16-mer peptide, residues 69–84 of BAK, spanning the BH3 domain (LGQVGRQLALIGDDIN)”, the “interaction with M11 in ITC, in words (KD could not be deduced)” value (“interaction … (KD could not be deduced)” for short) [1, 6] is reported as “flat titration curve”.

For “BIK: synthetic 25-mer BH3 peptide, residues 45–69 of BIK (VEGRNQVALRLACIGDEMDLCLRSP)”, the IC50 (BCL-XL ∆C24) is given as 43 nM, the “interaction … (KD could not be deduced)” value [1, 6] is given as “did not interact or poorly interacted” and the IC50 (BCL-w ∆C29) is given as 12 nM. For the same molecule, the IC50 (A1 ∆C20) was 58 nM.

In the case of “Beclin1 fragment composed of residues 101–116: a shorter Beclin1 fragment composed of residues 101–116 (ASDGGTMENLSRRLKV)”, the “interaction … (KD could not be deduced)” value [1, 6] is reported as “no sign of interaction”.

For EEEWAREIGAQLRRMADDLNAQYERR [PUMA], the IC50 (A1 ∆C20) is given as 5.7 nM and the IC50 (MCL ∆N151 ∆C23) is given as 5 nM.

For HRAEVQIARKLQCIADQFHRLHTQ [BMF], the IC50 (BCL-2 ∆C22) is given as 3 nM, the IC50 (BCL-XL ∆C24) is given as 9.7 nM and the “-T∆S (M11 + BH3)” value [2] is given as -2.56 kcal/mol. The “∆G (M11 + BH3)” value [2] was -8.90 kcal/mol, the “∆H (M11 + BH3)” value [2] was -6.34 ± 0.07 kcal/mol and the IC50 (BCL-w ∆C29) was 9.8 nM. The IC50 (A1 ∆C20) was 1800 nM and the IC50 (MCL ∆N151 ∆C23) was 1100 nM.

In the case of RWAAAQVTALRLQALGDELHRRAMRR [Hrk], the IC50 (BCL-2 ∆C22) is given as 320 nM, the IC50 (BCL-XL ∆C24) is given as 3.7 nM and the IC50 (BCL-w ∆C29) is given as 49 nM. The IC50 (A1 ∆C20) was 46 nM.

In the case of B1, the Kd [3] is reported as 690 nM.

Work on B2 yielded a Kd [3] of 76 nM.

B3: binds [3]; binds [4].

B4: binds [3].

B5: binds [3].

B6 gave a Kd (Beclin1(101–267)) of 40 nM.

B7: binds [3].

B8: binds [4].

For B9, the Kd (Beclin1(101–267)) was 1700 nM.

Work on B10 yielded a Kd ([5]; 25 °C, 20 mM Tris-HCl (pH 7.4), 100 mM NaCl, Table S2, read-out: KD (BCL-2 + Beclin1)) of 1680 ± 452 nM, a Kd ([5]; read-out: binding affinity between cellular BCL-2 and Beclin1) of 1700 nM and a Kd ([1]; ITC, 25 °C, 20 mM Tris-HCl (pH 7.4), 100 mM NaCl, 0.1 mM M11 titrated into 5 μM Beclin1 fragment, KD from curve fitting, listed as Residues 101 - 267, read-out: KD (M11 – Beclin1 fragment)) of 40.2 ± 9.05 nM. For the same molecule, the Kd ([1]; ITC, 25 °C, 20 mM Tris-HCl (pH 7.4), 100 mM NaCl, 0.1 mM M11 titrated into 5 μM Beclin1 fragment, KD from curve fitting, read-out: KD (M11 – Beclin1 fragment)) was 40 nM, the “-T∆S (M11 + Beclin1)” value [1, 7] was 4.23 kcal/mol and the “∆G (M11 + Beclin1)” value [1, 7] was -10.10 kcal/mol. The “∆H (M11 + Beclin1)” value [1, 7] was -14.33 ± 0.23 kcal/mol and the Kd ([1]; ITC, read-out: dissociation constant (M11 – BH3-like domain of Beclin1)) was 40 nM.
